# Assay results from US20150307555A1.
# How the values were obtained:
# [1] = target: human V2 receptor (human) (UniProt P30518); experiment: cell-based or functional assay
# [2] = target: human V1b receptor (human) (UniProt P47901); experiment: cell-based or functional assay
# Sequence of human V1b receptor (human) (P47901 whole entry): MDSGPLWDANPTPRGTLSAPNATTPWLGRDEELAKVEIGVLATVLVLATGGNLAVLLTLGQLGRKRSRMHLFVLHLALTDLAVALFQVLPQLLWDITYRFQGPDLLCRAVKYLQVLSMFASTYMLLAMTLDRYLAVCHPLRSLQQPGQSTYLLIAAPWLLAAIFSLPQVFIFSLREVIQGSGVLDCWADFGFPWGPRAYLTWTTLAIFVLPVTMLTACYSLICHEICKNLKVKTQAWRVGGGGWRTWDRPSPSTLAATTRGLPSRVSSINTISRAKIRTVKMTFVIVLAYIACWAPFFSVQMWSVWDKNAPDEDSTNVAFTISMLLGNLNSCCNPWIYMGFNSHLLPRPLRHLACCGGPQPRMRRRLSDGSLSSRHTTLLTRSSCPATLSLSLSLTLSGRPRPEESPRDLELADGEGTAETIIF
EC50 hV2-R [1],% Efficacy hV1b-R [2],% Efficacy hV2-R [1],Substance
0.04 nM,,,Arginine Vasopressin (peptide; unit assumed)
,100%,100%,"Desmopressin, [1-deamino, 8-D-arginine]-vasopressin (peptide)"
,,89%,[Val4]dDAVP (peptide)
0.05 nM,,,[Val4]dDAVP (peptide; unit assumed)
